Assay results reported in patent US20230331823A1 (HENRY M JACKSON FOUNDATION FOR THE ADVANCEMENT OF MILITARY …, published 2023).
Numbering of substitutions follows the chain as printed. Where two headings read alike, the source gives them in different places.

B1: ShAb02-Foldon (ShAb02 VNAR-KESlinker-Foldon-3c-His8-Strep) (VNAR)
VNAR: ARVDQTPQTITKETGESLTINCVLRDSNCALASTDWYRKKSGSTNEESISKGGRYVETVNSGSKSFSLRINDLTVEDSGTYRCNAWDSWETRQLKCDYDVYGGGTVVTVNK
B2: ShAb31 (MoB5-1D4) single domain VNAR (VNAR)
VNAR: ARVDQTPQTITKETGESLTINCVLRDSNCGVASTDWYRKKSGSTNEESISKGGRYVETVNSRSKSFSLRINDLTVEDSGTYRCNAWDRWETRQLNCDYDVYGGGTVVTVN
B3: ShAb01H06K (ShAb01Hole-06Knob) (bispecific antibody, V domains shown)
V domain 1: ARVDQTPRSVTKETGESLTINCVLRDSNCALSSTHWYRKKSGSTNEERILQGRRYVETVNSGSKSFSLRINDLRVEDSGTYRCKVYWGNSWQDKFCPGLGSYEYGDGTAVTVNS
V domain 2: ARVDQTPRSVTKETGESLTINCVLRDASYALGSTCWYRKKSGSTNEESISKGGRYVETVNSGSKSFSLRINDLTVEDGGTYRCGVGRGLGVGCDYPLCSYSYAACGDGTAVTVNS
B4: ShAb01-Foldon (ShAb01 VNAR-KESlinker-Foldon-3c-His8-Strep) (VNAR)
VNAR: B3 V domain 1 with S114K
B5: ShAb06H02K (ShAb06Hole-02Knob) (bispecific antibody, V domains shown)
V domain 1: B3 V domain 2
V domain 2: B1 VNAR with K111S

How the values were obtained:
[1] = molecular target: T1, SARS-CoV-2 WA-1 Spike on pseudovirions (SARS-CoV-2, UniProt P0DTC2 14-1255); assay: cell-based or functional assay
[2] = molecular target: T1, SARS-CoV-2 WA-1 Spike on pseudovirions; assay: cell-based or functional assay; remark: listed apart in the source
[3] = molecular target: SARS-CoV-2 RBD (pCoV08, RBD-His6) (SARS-CoV-2 (Wuhan-Hu-1), UniProt P0DTC2 331-527); assay: Table 1, column Specificity
SARS-CoV-2 NTD WA-1 = molecular target: T2, SARS-CoV-2 NTD WA-1 (SARS-CoV-2, UniProt P0DTC2 14-303); assay: BLI, ShAb-Fc on AHC probe, NTD analyte
T2 construct: domain: NTD

| Binder | pseudovirus neutralization IC50 [1] [µg/mL] | pseudovirus neutralization IC80 [1] [µg/mL] | pseudovirus neutralization IC50 [2] [µg/mL] | binding result [3] | Kd (SARS-CoV-2 NTD WA-1) [nM] | koff (SARS-CoV-2 NTD WA-1) [s⁻¹] | kon (SARS-CoV-2 NTD WA-1) [M⁻¹ s⁻¹] |
| --- | --- | --- | --- | --- | --- | --- | --- |
| B1 | 0.289 | 1.77 | < 0.02 |  |  |  |  |
| B2 |  |  |  | binds |  |  |  |
| B3 | 0.065 | 0.763 |  |  | 104 |  |  |
| B4 | 0.309 | 0.488 | 0.31 |  |  |  |  |
| B5 | 0.03 | 0.206 |  |  | 74.6 | 0.0085 | 114000 |
